Measurements reported in patent US20070071746A1 (AstraZeneca / MedImmune, published 2007).

B2: human acidic mammalian chitinase (AMCase), full length (enzyme)
chain: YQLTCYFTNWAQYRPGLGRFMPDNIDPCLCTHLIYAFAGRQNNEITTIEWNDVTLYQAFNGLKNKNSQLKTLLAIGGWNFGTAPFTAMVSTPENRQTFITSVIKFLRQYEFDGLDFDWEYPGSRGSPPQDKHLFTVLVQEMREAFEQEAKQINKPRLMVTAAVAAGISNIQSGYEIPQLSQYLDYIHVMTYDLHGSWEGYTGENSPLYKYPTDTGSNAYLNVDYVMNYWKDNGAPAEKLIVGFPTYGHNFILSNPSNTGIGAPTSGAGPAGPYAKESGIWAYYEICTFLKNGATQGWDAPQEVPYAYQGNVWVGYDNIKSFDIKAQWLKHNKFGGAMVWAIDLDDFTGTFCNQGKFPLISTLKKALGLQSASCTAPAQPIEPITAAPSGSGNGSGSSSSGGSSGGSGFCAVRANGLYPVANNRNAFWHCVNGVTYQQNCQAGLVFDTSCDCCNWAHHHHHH
notes: Recombinant from HEK293; non-tagged versions also made; Biotin labeled in the galectin ELISA; also called hAMCase; human AMCase
B5: human galectin-4 (other, UniProt P56470 1-323, looked up)
chain: MAYVPAPGYQPTYNPTLPYYQPIPGGLNVGMSVYIQGVASEHMKRFFVNFVVGQDPGSDVAFHFNPRFDGWDKVVFNTLQGGKWGSEERKRSMPFKKGAAFELVFIVLAEHYKVVVNGNPFYEYGHRLPLQMVTHLQVDGDLQLQSINFIGGQPLRPQGPPMMPPYPGPGHCHQQLNSLPTMEGPPTFNPPVPYFGRLQGGLTARRTIIIKGYVPPTGKSFAINFKVGSSGDIALHINPRMGNGTVVRNSLLNGSWGSEEKKITHNPFGPGQFFDLSIRCGLDRFKVYANGQHLFDFAHRLSAFQRVDTLEIQGDVTLSYVQI
notes: also called gal-4
B6: human AMCase C-terminally truncated, lacking the chitin binding domain (enzyme)
chain: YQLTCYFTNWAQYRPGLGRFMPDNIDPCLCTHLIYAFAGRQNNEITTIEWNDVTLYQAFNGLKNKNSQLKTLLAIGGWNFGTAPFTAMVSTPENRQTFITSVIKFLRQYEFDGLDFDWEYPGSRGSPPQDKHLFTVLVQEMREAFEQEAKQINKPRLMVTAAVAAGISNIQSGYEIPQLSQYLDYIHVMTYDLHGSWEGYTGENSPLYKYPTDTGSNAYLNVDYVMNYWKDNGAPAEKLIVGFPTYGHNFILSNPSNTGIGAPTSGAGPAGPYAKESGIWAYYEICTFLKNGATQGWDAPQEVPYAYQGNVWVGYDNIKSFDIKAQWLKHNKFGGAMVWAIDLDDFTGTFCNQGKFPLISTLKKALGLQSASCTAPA
notes: Biotin labeled in the galectin ELISA; also called hAMCase TR

Columns and labels:
[1] = biological target: T1, mouse acidic mammalian chitinase (AMCase), full length (mouse, UniProt Q91XA9 22-473); assay: ELISA (data not shown)
T1 construct: Recombinant, secreted from HEK293 cells and purified by its His tag; Biotin labeled in the galectin ELISA; also called mAMCase; mouse AMCase

human galectin-3 = biological target: T2, human galectin-3 (human, UniProt P17931 2-250); assay: ELISA: galectin immobilised on the plate, serial dilutions of biotin-labelled AMCase, streptavidin-HRP, TMB, A450
T2 construct: also called gal-3; LGALS3
Experimental: (§1) C/CLP-Galectin Interaction ELISA: Galectin is immobilized on a microtiter plate in DPBS over night at 2-8° C. The plates are then washed with DPBS, 0.1% Tween 20 and blocked for 1 hour at room temperature. Serial dilutions of biotin labeled AMCase are added to each well and incubated for ˜1 hour at room temperature followed by HRP labeled streptavidin. Horseradish peroxydase activity is detected with TMB substrate (KPL, MD) and the reaction is quenched with 1% H2SO4. The absorbance is read at 450 nm.

[2] = biological target: T3, mouse AMCase truncated form lacking the C-terminal chitin binding domain (mouse, UniProt Q91XA9 22-398, limits assumed); assay: ELISA
T3 construct: also called mAMCase TR

mouse YKL-40/BRP-39 = biological target: T4, mouse YKL-40/BRP-39 (mouse, UniProt Q61362 30-389); assay: ELISA
T4 construct: Recombinant from HEK293; non-tagged versions also made; also called mYKL40/BRP39; mYKL-40

[3] = biological target: B6; assay: ELISA
human chitotriosidase = biological target: T5, human chitotriosidase (human, UniProt Q13231 22-466); assay: ELISA
T5 construct: Recombinant from HEK293; non-tagged versions also made; also called hChT; ChT

human YKL-40 = biological target: T6, human YKL-40 (human, UniProt P36222 22-383); assay: ELISA
T6 construct: Recombinant from HEK293; non-tagged versions also made; also called hYKL-40; chitinase 3-like 1

mouse chitotriosidase = biological target: T7, mouse chitotriosidase (mouse, UniProt Q9D7Q1 22-464); assay: ELISA
T7 construct: Recombinant from HEK293; non-tagged versions also made; also called mChT; mouse ChT

human YKL-39 = biological target: T8, human YKL-39 (human, UniProt Q15782 27-390); assay: ELISA
T8 construct: Recombinant from HEK293; non-tagged versions also made; also called hYKL-39; chondrocyte protein 39
T8 sequence: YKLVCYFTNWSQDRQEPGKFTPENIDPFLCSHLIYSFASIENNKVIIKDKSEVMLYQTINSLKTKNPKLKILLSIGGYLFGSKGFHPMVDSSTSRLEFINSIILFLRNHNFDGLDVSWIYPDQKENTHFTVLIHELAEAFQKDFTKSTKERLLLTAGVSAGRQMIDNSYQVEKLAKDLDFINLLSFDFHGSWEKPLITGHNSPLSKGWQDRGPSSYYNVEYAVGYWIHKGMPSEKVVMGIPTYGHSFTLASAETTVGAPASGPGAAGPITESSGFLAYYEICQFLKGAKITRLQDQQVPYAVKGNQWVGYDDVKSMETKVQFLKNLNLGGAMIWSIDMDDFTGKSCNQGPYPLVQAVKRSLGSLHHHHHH

Ym1 = biological target: T9, Ym1 (mouse, UniProt O35744 22-398); assay: ELISA
T9 construct: Recombinant from HEK293; non-tagged versions also made; also called chitinase 3-like 3; ECF-L

[4] = biological target: B2; assay: ELISA
Ym2 = biological target: T10, Ym2 (mouse, UniProt Q91Z98 22-402); assay: ELISA
T10 construct: Recombinant from HEK293; non-tagged versions also made; also called chitinase 3-like 4

[5] = biological target: B2; assay: ELISA: galectin immobilised on the plate, serial dilutions of biotin-labelled AMCase, streptavidin-HRP, TMB, A450
Experimental: as §1

human galectin-4 = biological target: B5; assay: as above
Experimental: as §1

[6] = biological target: B6; assay: ELISA: galectin immobilised on the plate, serial dilutions of biotin-labelled C-terminally truncated human AMCase, A450
Experimental: as §1

[7] = biological target: B2; assay: ELISA: galectin immobilised on the plate, serial dilutions of biotin-labelled full length human AMCase, A450
Experimental: as §1

mouse AMCase E140A = biological target: T11, mouse AMCase E140A (mouse, UniProt Q91XA9 22-473); assay: ELISA; +++ = 2.50 to 3.99 OD at 62.5 ng/ml
T11 construct: Full length point mutant without chitinase activity; also called mAMCase E140A

[8] = biological target: T1, mouse acidic mammalian chitinase …; assay: ELISA; +++ = 2.50 to 3.99 OD at 62.5 ng/ml
mouse AMCase D136A = biological target: T12, mouse AMCase D136A (mouse, UniProt Q91XA9 22-473); assay: ELISA; +++ = 2.50 to 3.99 OD at 62.5 ng/ml
T12 construct: Full length point mutant without chitinase activity; also called mAMCase D136A
T12 sequence (Q91XA9 22-473 D136A limits assumed): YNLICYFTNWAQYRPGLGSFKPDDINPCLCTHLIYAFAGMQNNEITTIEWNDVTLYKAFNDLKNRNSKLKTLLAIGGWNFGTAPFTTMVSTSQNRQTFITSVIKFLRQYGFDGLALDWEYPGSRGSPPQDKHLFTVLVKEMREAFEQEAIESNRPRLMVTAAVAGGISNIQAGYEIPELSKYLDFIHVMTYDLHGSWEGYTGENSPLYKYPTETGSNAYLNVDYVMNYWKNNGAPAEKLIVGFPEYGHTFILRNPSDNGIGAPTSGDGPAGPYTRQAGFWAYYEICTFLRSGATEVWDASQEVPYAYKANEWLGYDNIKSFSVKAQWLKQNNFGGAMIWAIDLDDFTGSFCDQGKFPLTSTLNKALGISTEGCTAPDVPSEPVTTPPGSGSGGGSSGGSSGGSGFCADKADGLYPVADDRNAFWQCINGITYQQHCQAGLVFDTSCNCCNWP

T1 sequence (Q91XA9 other isoform, or with tags, fused parts or gaps limits assumed): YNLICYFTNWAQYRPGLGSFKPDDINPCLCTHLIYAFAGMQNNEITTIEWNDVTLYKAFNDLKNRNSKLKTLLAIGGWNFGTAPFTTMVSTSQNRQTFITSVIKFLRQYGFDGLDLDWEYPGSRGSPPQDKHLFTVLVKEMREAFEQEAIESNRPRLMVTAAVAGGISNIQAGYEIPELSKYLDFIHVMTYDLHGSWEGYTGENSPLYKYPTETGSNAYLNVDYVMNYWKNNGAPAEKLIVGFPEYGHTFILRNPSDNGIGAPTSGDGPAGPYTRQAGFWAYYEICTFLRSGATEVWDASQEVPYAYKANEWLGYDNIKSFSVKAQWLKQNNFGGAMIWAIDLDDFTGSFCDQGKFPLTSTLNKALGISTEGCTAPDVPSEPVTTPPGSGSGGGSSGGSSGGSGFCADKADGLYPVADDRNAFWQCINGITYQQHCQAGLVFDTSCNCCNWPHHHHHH
T6 sequence (P36222 other isoform, or with tags, fused parts or gaps limits assumed): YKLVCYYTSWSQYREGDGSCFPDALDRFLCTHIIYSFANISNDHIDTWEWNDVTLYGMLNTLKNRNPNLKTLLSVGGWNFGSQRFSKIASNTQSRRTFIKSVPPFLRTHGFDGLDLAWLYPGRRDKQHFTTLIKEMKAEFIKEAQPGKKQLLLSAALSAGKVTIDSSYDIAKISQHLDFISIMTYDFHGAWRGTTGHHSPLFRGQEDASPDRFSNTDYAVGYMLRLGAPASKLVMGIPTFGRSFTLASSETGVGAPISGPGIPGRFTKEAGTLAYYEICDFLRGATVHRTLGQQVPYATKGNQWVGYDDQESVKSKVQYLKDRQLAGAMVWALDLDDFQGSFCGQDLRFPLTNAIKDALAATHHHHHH
T5 sequence (Q13231 other isoform, or with tags, fused parts or gaps limits assumed): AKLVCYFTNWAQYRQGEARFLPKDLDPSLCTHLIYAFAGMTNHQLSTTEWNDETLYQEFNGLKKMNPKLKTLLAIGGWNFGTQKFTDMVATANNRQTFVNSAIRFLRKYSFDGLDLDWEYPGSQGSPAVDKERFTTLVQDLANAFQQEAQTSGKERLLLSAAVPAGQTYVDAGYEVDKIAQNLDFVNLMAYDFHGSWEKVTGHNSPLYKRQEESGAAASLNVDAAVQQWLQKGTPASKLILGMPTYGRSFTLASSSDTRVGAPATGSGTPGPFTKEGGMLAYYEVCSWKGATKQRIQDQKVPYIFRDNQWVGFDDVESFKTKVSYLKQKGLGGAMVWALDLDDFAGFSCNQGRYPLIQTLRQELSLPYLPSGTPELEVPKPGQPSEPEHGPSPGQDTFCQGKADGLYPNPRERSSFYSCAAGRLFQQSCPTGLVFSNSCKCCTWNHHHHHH
T7 sequence (Q9D7Q1 other isoform, or with tags, fused parts or gaps limits assumed): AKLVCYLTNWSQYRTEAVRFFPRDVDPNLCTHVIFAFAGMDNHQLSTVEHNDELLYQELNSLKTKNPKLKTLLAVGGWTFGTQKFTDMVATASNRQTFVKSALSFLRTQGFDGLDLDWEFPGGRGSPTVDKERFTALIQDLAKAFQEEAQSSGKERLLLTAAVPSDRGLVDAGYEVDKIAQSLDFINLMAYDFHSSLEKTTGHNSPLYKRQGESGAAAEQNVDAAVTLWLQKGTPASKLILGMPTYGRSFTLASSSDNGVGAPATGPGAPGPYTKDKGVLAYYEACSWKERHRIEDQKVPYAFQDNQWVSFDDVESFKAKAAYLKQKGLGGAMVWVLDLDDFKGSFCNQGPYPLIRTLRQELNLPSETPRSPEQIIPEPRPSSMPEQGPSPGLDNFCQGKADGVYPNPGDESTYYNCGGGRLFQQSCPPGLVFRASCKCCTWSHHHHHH
T3 sequence (Q91XA9 22-398 limits assumed): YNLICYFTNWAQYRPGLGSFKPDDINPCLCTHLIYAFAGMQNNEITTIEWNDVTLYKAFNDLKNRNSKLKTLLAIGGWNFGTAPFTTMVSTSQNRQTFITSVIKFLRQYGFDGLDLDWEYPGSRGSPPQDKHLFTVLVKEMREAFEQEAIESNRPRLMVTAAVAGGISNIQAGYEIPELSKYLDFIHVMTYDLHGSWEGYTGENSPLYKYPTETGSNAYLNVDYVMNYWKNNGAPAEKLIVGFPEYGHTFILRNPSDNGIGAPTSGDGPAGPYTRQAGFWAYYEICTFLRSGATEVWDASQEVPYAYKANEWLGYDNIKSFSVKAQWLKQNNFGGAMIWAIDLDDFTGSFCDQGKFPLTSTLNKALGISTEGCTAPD
T4 sequence (Q61362 other isoform, or with tags, fused parts or gaps limits assumed): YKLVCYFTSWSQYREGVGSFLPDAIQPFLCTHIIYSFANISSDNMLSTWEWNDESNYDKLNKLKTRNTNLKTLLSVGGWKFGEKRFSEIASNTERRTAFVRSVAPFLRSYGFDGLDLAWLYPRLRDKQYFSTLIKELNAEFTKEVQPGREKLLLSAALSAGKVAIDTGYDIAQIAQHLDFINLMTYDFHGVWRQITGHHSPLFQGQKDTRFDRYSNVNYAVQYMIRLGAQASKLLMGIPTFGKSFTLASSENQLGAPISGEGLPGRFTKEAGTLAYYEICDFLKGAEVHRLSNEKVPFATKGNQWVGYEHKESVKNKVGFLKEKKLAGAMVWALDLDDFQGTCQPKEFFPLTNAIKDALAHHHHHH
T2 sequence (P17931 2-250 limits assumed): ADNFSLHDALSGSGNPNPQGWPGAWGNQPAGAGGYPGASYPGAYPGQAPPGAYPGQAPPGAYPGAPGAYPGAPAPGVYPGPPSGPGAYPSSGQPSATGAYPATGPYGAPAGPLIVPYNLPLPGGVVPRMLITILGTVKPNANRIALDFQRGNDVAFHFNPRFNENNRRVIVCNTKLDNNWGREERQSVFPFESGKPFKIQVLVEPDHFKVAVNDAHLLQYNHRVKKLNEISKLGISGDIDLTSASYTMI
T9 sequence (O35744 other isoform, or with tags, fused parts or gaps limits assumed): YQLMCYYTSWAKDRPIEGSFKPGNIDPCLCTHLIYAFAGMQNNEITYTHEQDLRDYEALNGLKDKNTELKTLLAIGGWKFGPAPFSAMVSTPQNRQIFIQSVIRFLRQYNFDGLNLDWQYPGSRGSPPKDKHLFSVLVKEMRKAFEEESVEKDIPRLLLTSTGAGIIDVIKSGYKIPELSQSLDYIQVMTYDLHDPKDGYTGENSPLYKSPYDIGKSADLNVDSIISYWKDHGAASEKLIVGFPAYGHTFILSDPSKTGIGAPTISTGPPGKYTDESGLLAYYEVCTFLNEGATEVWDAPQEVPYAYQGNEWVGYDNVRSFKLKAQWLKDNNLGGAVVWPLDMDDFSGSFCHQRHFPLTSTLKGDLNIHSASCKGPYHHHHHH
T11 sequence (Q91XA9 22-473 E140A limits assumed): as the sequence (Q91XA9 22-473 D136A limits assumed) above, with A115D, E119A counted along it
T10 sequence (Q91Z98 other isoform, or with tags, fused parts or gaps limits assumed): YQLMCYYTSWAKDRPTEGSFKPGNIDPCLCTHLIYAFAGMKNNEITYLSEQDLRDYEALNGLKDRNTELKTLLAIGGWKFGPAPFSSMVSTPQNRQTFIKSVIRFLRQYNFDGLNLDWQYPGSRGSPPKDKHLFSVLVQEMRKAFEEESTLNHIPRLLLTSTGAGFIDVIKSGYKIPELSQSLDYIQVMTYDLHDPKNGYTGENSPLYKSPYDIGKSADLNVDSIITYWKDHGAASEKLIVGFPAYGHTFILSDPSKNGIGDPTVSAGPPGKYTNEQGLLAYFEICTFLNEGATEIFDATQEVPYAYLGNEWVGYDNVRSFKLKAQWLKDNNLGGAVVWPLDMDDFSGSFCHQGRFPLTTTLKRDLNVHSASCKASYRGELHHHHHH

B1: mouse galectin-3 (other, UniProt P16110 2-264, looked up)
chain: ADSFSLNDALAGSGNPNPQGYPGAWGNQPGAGGYPGAAYPGAYPGQAPPGAYPGQAPPGAYPGQAPPSAYPGPTAPGAYPGPTAPGAYPGQPAPGAFPGQPGAPGAYPQCSGGYPAAGPYGVPAGPLTVPYDLPLPGGVMPRMLITIMGTVKPNANRIVLDFRRGNDVAFHFNPRFNENNRRVIVCNTKQDNNWGKEERQSAFPFESGKPFKIQVLVEADHFKVAVNDAHLLQYNHRMKNLREISQLGISGDITLTSANHAMI
notes: also called mGal-3
Question: Does B1 bind [1]?
Answer: binds

Question: With B2 as the binder, how does the “EC50 (read off the curve)” value (human galectin-3) read?
Answer: ~0.06 µg/mL

B3: mouse galectin-4 (other, UniProt Q8K419 1-326, looked up)
chain: MAYVPAPGYQPTYNPTLPYKRPIPGGLSVGMSVYIQGMAKENMRRFHVNFAVGQDDGADVAFHFNPRFDGWDKVVFNTMQSGQWGKEEKKKSMPFQKGKHFELVFMVMPEHYKVVVNGNSFYEYGHRLPVQMVTHLQVDGDLELQSINFLGGQPAAAPYPGAMTIPAYPAGSPGYNPPQMNTLPVMTGPPVFNPRVPYVGALQGGLTVRRTIIIKGYVLPTARNFVINFKVGSSGDIALHLNPRIGDSVVRNSFMNGSWGAEERKVAYNPFGPGQFFDLSIRCGMDRFKVFANGQHLFDFSHRFQAFQMVDTLEINGDITLSYVQI
notes: also called mGal-4
Question: Does B3 bind [1]?
Answer: binds

B4: M1 (antibody, V domains shown)
VH: EVQLLESGGGLVQPGGSLRLSCAASGFTFSTYGMDWVRQAPGKGLEWVSYISPSGGYTMYADSVKGRFTISRDNSKNTLYLQMNSLRAEDTAVYYCARHSPRSAGANAFDIWGQGTMVTVSS
VL: DIQMTQSPATLSVSPGERATLSCRASQSVSSNLAWYQQKPGQAPRLLIYGASTRATGIPARFSGSGSGTEFTLTISSLQSEDFAVYYCQQYGSSLWTFGQGTKVEIK
notes: Fully human anti-AMCase antibody from phage display, converted to full length IgG
Question: Does B4 bind [2]?
Answer: no binding

Question: Does B4 bind (mouse YKL-40/BRP-39)?
Answer: no binding

Question: Does B4 bind [3]?
Answer: no binding

Question: Does B4 bind (human chitotriosidase)?
Answer: no binding

Question: Does B4 bind (human YKL-40)?
Answer: no binding

Question: Does B4 bind (mouse chitotriosidase)?
Answer: no binding

Question: Does B4 bind (human YKL-39)?
Answer: no binding

Question: Does B4 bind (Ym1)?
Answer: no binding

Question: Does B4 bind [4]?
Answer: no binding

Question: Does B4 bind (Ym2)?
Answer: no binding

Question: Does B5 bind [5]?
Answer: binds

Question: B6 was tested. Which “EC50 (read off the curve)” value (human galectin-4) did it give?
Answer: ~0.1 µg/mL

B7: galectin 8 (other, UniProt O00214 1-317, looked up)
chain: MMLSLNNLQNIIYNPVIPFVGTIPDQLDPGTLIVIRGHVPSDADRFQVDLQNGSSMKPRADVAFHFNPRFKRAGCIVCNTLINEKWGREEITYDTPFKREKSFEIVIMVLKDKFQVAVNGKHTLLYGHRIGPEKIDTLGIYGKVNIHSIGFSFSSDLQSTQASSLELTEISRENVPKSGTPQLRLPFAARLNTPMGPGRTVVVKGEVNANAKSFNVDLLAGKSKDIALHLNPRLNIKAFVRNSFLQESWGEEERNITSFPFSPGMYFEMIIYCDVREFKVAVNGVHSLEYKHRFKELSSIDTLEINGDIHLLEVRSW
notes: also called LGALS8
Question: Does B7 bind [6]?
Answer: no binding (tested: 10 ug/ml)

B8: galectin 2 (other, UniProt P05162 1-132, looked up)
chain: MTGELEVKNMDMKPGSTLKITGSIADGTDGFVINLGQGTDKLNLHFNPRFSESTIVCNSLDGSNWGQEQREDHLCFSPGSEVKFTVTFESDKFKVKLPDGHELTFPNRLGHSHLSYLSVRGGFNMSSFKLKE
Question: Does B8 bind [7]?
Answer: no binding (tested: 10 ug/ml)

Question: Does B8 bind [6]?
Answer: no binding (tested: 10 ug/ml)

B9: M5 (antibody, V domains shown)
VH: EVQLLESGGGLVQPGGSLRLSCAASGFTFSKYLMQWVRQAPGKGLEWVSSIVPSGGETVYADSVKGRFTISRDNSKNTLYLQMNSLRAEDTAVYYCARSGTYGASRYWGQGTLVTVSS
VL: DIQMTQSPLSLSVSVGQSASISCRSSHSLLYSDGNTYINWFHQRPGQSPRRLIHMVSKRDSGVPDRFSGSGSGTDFTLKISRAEAEDVGVYYCMQATYFPLTFGGGTRVEIK
notes: Fully human anti-AMCase antibody from a phage display library, converted to full length IgG
Question: With B9 as the binder, how does the “ELISA OD at 62.5 ng/ml antibody” value (mouse AMCase E140A) read?
Answer: 2.5 to 3.99 od

Question: What about the “ELISA OD at 62.5 ng/ml antibody” value [8] of the same binder?
Answer: 2.5 to 3.99 od

Question: What about the “ELISA OD at 62.5 ng/ml antibody” value (mouse AMCase D136A) of the same binder?
Answer: 2.5 to 3.99 od

Question: Does B9 bind [2]?
Answer: no binding

Question: Does B9 bind (mouse YKL-40/BRP-39)?
Answer: no binding

Question: Does B9 bind [3]?
Answer: no binding

Question: Does B9 bind (human chitotriosidase)?
Answer: no binding

Question: Does B9 bind (human YKL-40)?
Answer: no binding

Question: Does B9 bind (mouse chitotriosidase)?
Answer: no binding

Question: Does B9 bind (human YKL-39)?
Answer: no binding

Question: Does B9 bind [4]?
Answer: no binding
